# B1: mouse MR1-rRL-6-CH2OH tetramers: tetramers from mouse wild-type MR1-rRL-6-CH2OH (C-terminal cysteine) (protein, UniProt Q8HWB0 19-341; P01887 21-119, looked up)
# Major histocompatibility …: RTHSLRYFRLAVSDPGPVVPEFISVGYVDSHPITTYDSVTRQKEPKAPWMAENLAPDHWERYTQLLRGWQQTFKAELRHLQRHYNHSGLHTYQRMIGCELLEDGSTTGFLQYAYDGQDFIIFNKDTLSWLAMDYVAHITKQAWEANLHELQYQKNWLEEECIAWLKRFLEYGRDTLERTEHPVVRTTRKETFPGITTFFCRAHGFYPPEISMTWMKNGEEIAQEVDYGGVLPSGDGTYQTWLSVNLDPQSNDVYSCHVEHCGRQMVLEAPRESGDILRVSTISGTTILIIALAGVGVLIWRRSQELKEVMYQPTQVNEGSSPS
# Beta-2-microglobulin: IQKTPQIQVYSRHPPENGKPNILNCYVTQFHPPHIEIQMLKNGKKIPKVEMSDMSFSKDWSFYILAHTEFTPTETDTYACRVKHASMAEPKTVYWDRDM
# modifications: rRL-6-CH2OH ligand; C-terminal cysteine; tetramer
# Experiments:
# MAIT TCR-BW hybridomas = experiment: MR1 tetramer staining of MAIT TCR-BW hybridomas; assay type: cell-based; details: hybridomas from mouse Vα19iTG splenocytes fused with BW cell line
# Description: (§1) Wild-type human MR1 containing a C-terminal cysteine can be refolded with the addition of 5-amino-6-D-ribitylamino-uracil and pyruvaldehyde, using the standard refolding conditions described above, and then purified using the standard methods also described above. MR1 refolded in this way has rRL-6-CH2OH bound as determined by X-ray crystallography structural studies, and by electrospray ionization time-of-flight (ESI TOF) mass spectrometry. […] Excess biotin is removed by passing biotinylated protein through an S200 10/300 GL (Healthcare) gel filtration column in Tris buffered saline (pH 8.0), prior to formation of tetramers by addition to PE Streptavidin (#554061, BD Pharmingen). […] In the same manner human MR1 containing a C-terminal cysteine can be refolded with the addition of 5-amino-6-D-ribitylamino-uracil, and subsequently purified by fast protein liquid chromatography (FPLC) to yield MR1 refolded with a novel ribityllumazine metabolite, reduced 7-hydroxy-ribityllumazine (rRL-7-OH). The identity of rRL-7-OH bound to MR1 was confirmed by ESI TOF mass spectrometry, and by determining its structure using X-ray crystallography. The identity of rRL-7-OH bound to MR1 was also confirmed by refolding wild-type MR1 with 5-amino-6-D-ribitylamino-uracil and ^13C-glycolaldehyde to yield MR1-^13C-rRL-7-OH.
# control BW cells = experiment: MR1 tetramer staining of control BW cells; assay type: cell-based, mouse
# Description: as §1
molecule,measurement,setting,value
B1,Tetramer staining of MAIT TCR-BW hybridomas,MAIT TCR-BW hybridomas,stain
same,Tetramer staining of control BW cells,control BW cells,not
